Test results: IntAct's records for PubMed 12681510

B1: Rho guanine nucleotide exchange factor 1 (Homo sapiens), Q92888 (parent)
chain: MEDFARGAASPGPSRPGLVPVSIIGAEDEDFENELETNSEEQNSQFQSLEQVKRRPAHLMALLQHVALQFEPGPLLCCLHADMLGSLGPKEAKKAFLDFYHSFLEKTAVLRVPVPPNVAFELDRTRADLISEDVQRRFVQEVVQSQQVAVGRQLEDFRSKRLMGMTPWEQELAQLEAWVGRDRASYEARERHVAERLLMHLEEMQHTISTDEEKSAAVVNAIGLYMRHLGVRTKSGDKKSGRNFFRKKVMGNRRSDEPAKTKKGLSSILDAARWNRGEPQVPDFRHLKAEVDAEKPGATDRKGGVGMPSRDRNIGAPGQDTPGVSLHPLSLDSPDREPGADAPLELGDSSPQGPMSLESLAPPESTDEGAETESPEPGDEGEPGRSGLELEPEEPPGWRELVPPDTLHSLPKSQVKRQEVISELLVTEAAHVRMLRVLHDLFFQPMAECLFFPLEELQNIFPSLDELIEVHSLFLDRLMKRRQESGYLIEEIGDVLLARFDGAEGSWFQKISSRFCSRQSFALEQLKAKQRKDPRFCAFVQEAESRPRCRRLQLKDMIPTEMQRLTKYPLLLQSIGQNTEEPTEREKVELAAECCREILHHVNQAVRDMEDLLRLKDYQRRLDLSHLRQSSDPMLSEFKNLDITKKKLVHEGPLTWRVTKDKAVEVHVLLLDDLLLLLQRQDERLLLKSHSRTLTPTPDGKTMLRPVLRLTSAMTREVATDHKAFYVLFTWDQEAQIYELVAQTVSERKNWCALITETAGSLKVPAPASRPKPRPSPSSTREPLLSSSENGNGGRETSPADARTERILSDLLPFCRPGPEGQLAATALRKVLSLKQLLFPAEEDNGAGPPRDGDGVPGGGPLSPARTQEIQENLLSLEETMKQLEELEEEFCRLRPLLSQLGGNSVPQPGCT

Variants of: B1
Details: with gna13_human GNA13, Q14344
Chain of gna13_human GNA13, Q14344 (Q14344 whole entry): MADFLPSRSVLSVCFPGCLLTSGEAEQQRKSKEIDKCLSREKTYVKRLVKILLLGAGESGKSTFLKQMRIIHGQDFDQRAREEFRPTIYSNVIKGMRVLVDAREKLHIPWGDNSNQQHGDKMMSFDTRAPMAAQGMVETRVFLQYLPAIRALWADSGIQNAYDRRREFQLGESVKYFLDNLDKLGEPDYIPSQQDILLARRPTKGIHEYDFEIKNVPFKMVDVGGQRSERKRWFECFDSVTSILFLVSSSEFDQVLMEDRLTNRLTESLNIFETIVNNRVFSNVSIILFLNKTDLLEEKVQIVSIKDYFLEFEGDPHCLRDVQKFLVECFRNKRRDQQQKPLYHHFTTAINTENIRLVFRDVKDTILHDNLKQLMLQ

| Variant | effect of a mutation on the interaction |
| --- | --- |
| E27A;E29A | decreasing interaction |

Variants of: B1
Details: with gna13_human GNA13, Q14344
Remark: another data set of the same source

| Variant | effect of a mutation on the interaction |
| --- | --- |
| E27A;E29A | decreasing interaction |
